Experiments:
[1] = target: T1, human coagulation factor XI (hFXI), plasma-derived (ERL) (human, UniProt P03951 19-625); assay: SPR (Biacore), mAb captured on anti-hFc, antigen injected, 37C
T1 construct: also called hFXI (ERL); human FXI
Procedure: (§1) Then, all FXI solutions were injected on Biacore 8K at 30 μL/min for 180 seconds and dissociation was monitored for 10 minutes.

[2] = target: T2, mfFXI.mmh (REGN3883) (cynomolgus monkey (Macaca fascicularis), UniProt A0A2K5VVW4 19-624); assay: as above
T2 construct: also called monkey FXI.mmh; recombinant cynomolgus monkey FXI; not shown: mmH tag

[3] = target: T3, mFXI.mmH (mouse, UniProt Q91Y47 19-624); assay: SPR (Biacore), REGN7508 captured on anti-hFcG, mFXI.mmH injected, 25C, pH 7.4
T3 construct: also called recombinant mouse FXI; not shown: mmH tag

[4] = target: T2, mfFXI.mmh (REGN3883); assay: SPR (Biacore), mAb captured on anti-hFc, antigen injected, 25C
Procedure: as §1

[5] = target: T1, human coagulation factor XI (hFXI), …; assay: SPR (Biacore), mAb captured on anti-hFc, antigen injected, 25C; 25 C
Procedure: as §1

[6] = target: T4, hFXI.mmh (REGN3848) (human, UniProt P03951 19-625); assay: SPR (Biacore), mAb captured on anti-hFc, antigen injected, 37C
T4 construct: Human FXI with a C-terminal myc-myc-hexahistidine tag; also called human FXI.mmh; recombinant human FXI
Procedure: as §1

[7] = target: T5, human activated factor XI (hFXIa), plasma-derived (ERL) (human, UniProt P03951 19-387; P03951 388-625); assay: as above
T5 construct: After cleavage each subunit is two disulfide-linked chains; also called hFXIa (ERL); human FXIa
Procedure: as §1

[8] = target: T5, human activated factor XI (hFXIa), …; assay: SPR (Biacore), mAb captured on anti-hFc, antigen injected, 25C
Procedure: as §1

[9] = target: T4, hFXI.mmh (REGN3848); assay: SPR (Biacore), REGN7508 captured on anti-hFcG, antigen injected, 25C, pH 7.4
Procedure: (§2) Each concentration was tested in duplicate.
(§3) Specific binding signals were obtained by a double referencing procedure and plotted as SPR sensorgrams. […] The kinetic parameters were obtained by globally fitting these specific binding signals to a 1:1 binding model with mass transport limitation. The equilibrium dissociation constant (KD) was calculated from the ratio of the dissociation rate constant to the association rate constant (KD=kd/ka).

[10] = target: T2, mfFXI.mmh (REGN3883); assay: as above
Procedure: as §2, §3

[11] = target: T5, human activated factor XI (hFXIa), …; assay: as above
Procedure: as §2, §3

[12] = target: T1, human coagulation factor XI (hFXI), …; assay: as above
Procedure: as §2, §3

[13] = target: T4, hFXI.mmh (REGN3848); assay: SPR (Biacore), mAb captured on anti-hFc, antigen injected, 25C
Procedure: as §1

[14] = target: T6, rbFXI.mmH (rabbit, UniProt G1SSQ6 19-623); assay: SPR (Biacore), REGN7508 captured on anti-hFcG, rbFXI.mmH injected, 25C, pH 7.4
T6 construct: also called recombinant rabbit FXI; not shown: mmH tag

[15] = target: T1, human coagulation factor XI (hFXI), …; assay: SPR (Biacore), mAb captured on anti-hFc, antigen injected, 25C
Procedure: as §1

[16] = target: T5, human activated factor XI (hFXIa), …; assay: cell-based or functional assay
[17] = target: T1, human coagulation factor XI (hFXI), …; assay: cell-based or functional assay

T2 sequence (A0A2K5VVW4 entry or part of it): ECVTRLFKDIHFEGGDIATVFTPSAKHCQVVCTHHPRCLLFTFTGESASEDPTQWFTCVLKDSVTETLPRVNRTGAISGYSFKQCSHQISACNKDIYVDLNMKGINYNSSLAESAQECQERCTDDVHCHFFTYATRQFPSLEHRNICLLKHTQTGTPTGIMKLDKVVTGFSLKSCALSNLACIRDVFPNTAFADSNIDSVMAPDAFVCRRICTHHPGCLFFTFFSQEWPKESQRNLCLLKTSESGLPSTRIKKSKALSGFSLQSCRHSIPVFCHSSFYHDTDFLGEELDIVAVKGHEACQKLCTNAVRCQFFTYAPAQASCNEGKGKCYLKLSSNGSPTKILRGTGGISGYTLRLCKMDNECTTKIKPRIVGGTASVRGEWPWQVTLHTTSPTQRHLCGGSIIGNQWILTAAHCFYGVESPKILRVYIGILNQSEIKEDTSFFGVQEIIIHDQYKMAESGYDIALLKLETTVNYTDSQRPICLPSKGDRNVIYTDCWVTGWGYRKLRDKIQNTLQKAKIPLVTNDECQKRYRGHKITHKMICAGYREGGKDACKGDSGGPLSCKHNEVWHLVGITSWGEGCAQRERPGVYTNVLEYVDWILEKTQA
T1 sequence (P03951 19-625): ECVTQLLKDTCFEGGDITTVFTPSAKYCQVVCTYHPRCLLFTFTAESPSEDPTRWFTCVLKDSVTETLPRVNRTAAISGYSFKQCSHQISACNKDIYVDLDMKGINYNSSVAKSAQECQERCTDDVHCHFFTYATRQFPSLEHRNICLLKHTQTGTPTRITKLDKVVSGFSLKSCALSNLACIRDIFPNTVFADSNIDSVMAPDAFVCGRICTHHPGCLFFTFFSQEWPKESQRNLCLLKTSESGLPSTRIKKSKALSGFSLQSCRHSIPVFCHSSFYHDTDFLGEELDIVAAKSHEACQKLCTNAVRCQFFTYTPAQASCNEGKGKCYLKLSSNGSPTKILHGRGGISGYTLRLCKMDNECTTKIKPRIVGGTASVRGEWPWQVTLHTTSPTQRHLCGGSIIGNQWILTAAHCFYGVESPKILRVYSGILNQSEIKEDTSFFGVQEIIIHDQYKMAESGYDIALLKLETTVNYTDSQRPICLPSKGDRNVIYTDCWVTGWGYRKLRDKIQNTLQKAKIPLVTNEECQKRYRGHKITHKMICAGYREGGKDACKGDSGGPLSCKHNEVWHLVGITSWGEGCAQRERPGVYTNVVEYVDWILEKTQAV
T5 sequence (P03951 19-387 limits assumed, chain 1 of 2): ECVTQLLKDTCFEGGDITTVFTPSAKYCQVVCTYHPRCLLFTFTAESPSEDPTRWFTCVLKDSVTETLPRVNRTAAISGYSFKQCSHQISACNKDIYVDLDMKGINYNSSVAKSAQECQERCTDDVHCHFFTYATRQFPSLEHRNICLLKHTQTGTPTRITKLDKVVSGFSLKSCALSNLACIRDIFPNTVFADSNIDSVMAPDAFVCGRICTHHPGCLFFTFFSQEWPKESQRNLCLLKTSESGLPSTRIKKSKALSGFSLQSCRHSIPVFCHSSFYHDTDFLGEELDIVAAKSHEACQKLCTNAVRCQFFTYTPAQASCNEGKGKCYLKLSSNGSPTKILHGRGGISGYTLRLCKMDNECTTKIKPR
T5 sequence (P03951 388-625 limits assumed, chain 2 of 2): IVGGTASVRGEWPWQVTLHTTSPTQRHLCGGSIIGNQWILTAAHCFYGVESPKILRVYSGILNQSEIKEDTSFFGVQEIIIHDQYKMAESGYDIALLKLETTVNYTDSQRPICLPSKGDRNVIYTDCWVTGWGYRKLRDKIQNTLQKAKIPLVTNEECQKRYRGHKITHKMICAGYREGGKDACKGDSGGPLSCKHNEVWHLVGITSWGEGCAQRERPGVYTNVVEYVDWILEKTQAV
T4 sequence (P03951 other isoform, or with tags, fused parts or gaps limits assumed): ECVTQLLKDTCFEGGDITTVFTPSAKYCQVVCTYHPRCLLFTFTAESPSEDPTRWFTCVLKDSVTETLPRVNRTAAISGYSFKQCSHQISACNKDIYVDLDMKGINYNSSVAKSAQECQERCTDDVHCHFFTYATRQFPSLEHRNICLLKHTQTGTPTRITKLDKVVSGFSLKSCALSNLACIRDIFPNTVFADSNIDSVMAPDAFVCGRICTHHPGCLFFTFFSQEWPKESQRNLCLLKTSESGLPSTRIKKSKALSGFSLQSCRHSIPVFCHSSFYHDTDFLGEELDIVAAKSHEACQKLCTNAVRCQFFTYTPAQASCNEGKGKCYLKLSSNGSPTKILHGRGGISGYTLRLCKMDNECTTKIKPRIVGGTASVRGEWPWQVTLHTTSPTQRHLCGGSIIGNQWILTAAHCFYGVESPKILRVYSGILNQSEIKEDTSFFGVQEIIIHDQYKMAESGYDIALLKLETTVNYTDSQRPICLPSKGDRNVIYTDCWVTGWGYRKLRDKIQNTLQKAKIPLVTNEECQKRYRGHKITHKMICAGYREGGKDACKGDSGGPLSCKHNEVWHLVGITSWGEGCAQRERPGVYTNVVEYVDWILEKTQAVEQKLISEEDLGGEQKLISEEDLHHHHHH
T6 sequence (G1SSQ6 entry or part of it): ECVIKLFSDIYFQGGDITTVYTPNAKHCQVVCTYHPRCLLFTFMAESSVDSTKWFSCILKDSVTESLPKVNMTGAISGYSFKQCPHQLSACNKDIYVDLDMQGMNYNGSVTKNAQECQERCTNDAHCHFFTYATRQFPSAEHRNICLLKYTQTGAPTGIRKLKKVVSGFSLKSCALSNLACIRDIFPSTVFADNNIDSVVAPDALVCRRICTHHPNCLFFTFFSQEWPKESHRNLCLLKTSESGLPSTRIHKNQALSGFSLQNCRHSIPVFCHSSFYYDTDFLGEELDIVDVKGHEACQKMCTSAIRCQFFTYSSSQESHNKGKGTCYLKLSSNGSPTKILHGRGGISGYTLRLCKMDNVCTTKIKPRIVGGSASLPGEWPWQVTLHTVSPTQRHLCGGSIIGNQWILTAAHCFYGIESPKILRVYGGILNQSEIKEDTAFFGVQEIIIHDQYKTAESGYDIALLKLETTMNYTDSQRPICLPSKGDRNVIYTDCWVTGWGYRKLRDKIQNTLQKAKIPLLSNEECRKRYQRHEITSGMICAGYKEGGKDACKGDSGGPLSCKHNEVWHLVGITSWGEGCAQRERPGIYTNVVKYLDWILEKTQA
T3 sequence (Q91Y47 19-624): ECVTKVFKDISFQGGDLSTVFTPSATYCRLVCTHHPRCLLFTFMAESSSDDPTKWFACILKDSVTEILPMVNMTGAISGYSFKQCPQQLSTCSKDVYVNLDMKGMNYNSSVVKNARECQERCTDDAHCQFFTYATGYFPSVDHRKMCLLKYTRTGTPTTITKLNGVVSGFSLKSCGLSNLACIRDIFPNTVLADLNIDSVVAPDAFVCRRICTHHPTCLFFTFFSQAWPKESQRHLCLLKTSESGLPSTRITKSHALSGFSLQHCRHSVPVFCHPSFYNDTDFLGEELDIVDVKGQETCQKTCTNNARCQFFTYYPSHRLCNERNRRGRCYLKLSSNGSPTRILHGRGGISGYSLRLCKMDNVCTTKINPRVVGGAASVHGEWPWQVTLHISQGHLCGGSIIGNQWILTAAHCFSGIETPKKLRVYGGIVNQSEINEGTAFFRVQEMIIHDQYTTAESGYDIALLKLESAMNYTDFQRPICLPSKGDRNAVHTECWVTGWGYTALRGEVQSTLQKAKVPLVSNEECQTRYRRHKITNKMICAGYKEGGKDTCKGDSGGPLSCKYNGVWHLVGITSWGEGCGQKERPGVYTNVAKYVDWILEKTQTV

B1: REGN7508 (antibody, human IgG4 S228P, kappa, V domains shown)
VH: QVQLVESGGGLVKPGGSLRLSCAASGFTFSDYSMNWIRQAPGKGLEWISYISFSGNSIYYADSVKGRFTISRDNAKNSLYLQMNSLRVEDTAIYYCTSRDWGYAFDIWGQGTMVTVSS
VL: DIQMTQSPSFLSASLGDRVTITCQASQDISNYLNWYQVKPGKAPKLLIYDASNLETGVPSRFSGSGSGTDFTFTISSLQPEDIATYFCQQYDNLPYIFGQGTKLEIKR
notes: also called Subject mAb [REGN7508]; subject anti-FXI mAb
B1 gave a Kd [1] of at most 3.09 pM, a koff [1] of at most 1e-05 s⁻¹ and a kon [1] of 3.24e+06 M⁻¹ s⁻¹. For the same binder, the t½ [1] was at least 19.2 h, the Kd [2] was 43.5 pM and the koff [2] was 0.000111 s⁻¹. For the same binder, the kon [2] was 2.56e+06 M⁻¹ s⁻¹, the t½ [2] was 1.73 h and the binding result [3] was “no binding (tested: 50 nM)”. For the same binder, the Kd [4] was at most 4.81 pM, the koff [4] was at most 1e-05 s⁻¹ and the kon [4] was 2.08e+06 M⁻¹ s⁻¹. The t½ [4] was at least 19.2 h, the Kd [5] was at most 4.54 pM and the Kd [6] was 32.6 pM. It also gave a koff [6] of 8.86e-05 s⁻¹, a kon [6] of 2.71e+06 M⁻¹ s⁻¹ and a t½ [6] of 2.17 h. It also gave a Kd [7] of 256 pM, a koff [7] of 0.000121 s⁻¹ and a kon [7] of 475000 M⁻¹ s⁻¹. The t½ [7] was 1.58 h, the Kd [8] was at most 31.1 pM and the koff [8] was at most 1e-05 s⁻¹. The kon [8] was 321000 M⁻¹ s⁻¹, the t½ [8] was at least 19.2 h and the Kd [9] was 8.07 pM. The koff [9] was 2.7e-05 s⁻¹, the kon [9] was 3.34e+06 M⁻¹ s⁻¹ and the t1/2 [9] was 7.13 h. For the same binder, the Kd [10] was 3.73 pM, the koff [10] was 9.62e-06 s⁻¹ and the kon [10] was 2.58e+06 M⁻¹ s⁻¹. It also gave a t1/2 [10] of 20 h, a Kd [11] of 10.2 pM and a koff [11] of 3.61e-05 s⁻¹. The kon [11] was 3.55e+06 M⁻¹ s⁻¹, the t1/2 [11] was 5.33 h and the Kd [12] was 3 pM. For the same binder, the koff [12] was 9.36e-06 s⁻¹, the kon [12] was 3.12e+06 M⁻¹ s⁻¹ and the t1/2 [12] was 20.6 h. The Kd [13] was at most 5.34 pM, the koff [13] was at most 1e-05 s⁻¹ and the kon [13] was 1.87e+06 M⁻¹ s⁻¹. The t½ [13] was at least 19.2 h, the binding result [14] was “no binding (tested: 250 nM)” and the koff [15] was at most 1e-05 s⁻¹. It also gave a kon [15] of 2.2e+06 M⁻¹ s⁻¹ and a t½ [15] of at least 19.2 h.

B2: REGN9932 (antibody, human IgG4 S228P, kappa, V domains shown)
VH: QVQLVESGGGVVQPGRSLRLSCAASGFTFSNYEMHWVRQTPGKGLEWVALIWYDGSNKYSGDSVKGRFTISRDNSKSTLYLQMNSLTAEDTAVYYCTGITGTEDAFDVWGQGTMVTVSS
VL: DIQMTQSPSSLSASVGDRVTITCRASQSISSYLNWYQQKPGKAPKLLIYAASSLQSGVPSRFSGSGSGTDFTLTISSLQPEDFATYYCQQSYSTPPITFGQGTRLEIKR
notes: also called anti-FXI mAb [REGN9932]
B2 was tested, and the “IC50 [M], FXIa, 0.13% plasma (chromogenic FXa generation, BIOPHEN Factor XIa kit)” value [16] was over 1e-08 M, the “IC50 [M], FXI, 0.13% plasma (chromogenic FXa generation, BIOPHEN Factor XIa kit)” value [17] was 1.9e-10 M and the Kd [1] was 36.5 pM. For the same binder, the koff [1] was at most 1e-05 s⁻¹, the kon [1] was 274000 M⁻¹ s⁻¹ and the t½ [1] was at least 19.2 h. It also gave a Kd [2] of 268 pM, a koff [2] of 8.6e-05 s⁻¹ and a kon [2] of 321000 M⁻¹ s⁻¹. The t½ [2] was 2.24 h, the Kd [4] was at most 64.4 pM and the koff [4] was at most 1e-05 s⁻¹. It also gave a kon [4] of 155000 M⁻¹ s⁻¹, a t½ [4] of at least 19.2 h and a Kd [6] of 387 pM. The koff [6] was 8.77e-05 s⁻¹, the kon [6] was 226000 M⁻¹ s⁻¹ and the t½ [6] was 2.19 h. For the same binder, the Kd [13] was at most 116 pM, the koff [13] was at most 1e-05 s⁻¹ and the kon [13] was 86200 M⁻¹ s⁻¹. It also gave a t½ [13] of at least 19.2 h, a Kd [15] of at most 119 pM and a koff [15] of at most 1e-05 s⁻¹. It also gave a kon [15] of 83800 M⁻¹ s⁻¹ and a t½ [15] of at least 19.2 h.

Reference: patent publication US20240190996A1 (Regeneron, published 2024)
